Data reported in patent US20150344570A1 (published 2015).

T1: FcgRIIaH (human, UniProt P12318 34-217)
T1 construct: extracellular domain; also called FcγRIIa H; FcγRIIa type H; not shown: His tag at the C terminus
T1 sequence (looked up): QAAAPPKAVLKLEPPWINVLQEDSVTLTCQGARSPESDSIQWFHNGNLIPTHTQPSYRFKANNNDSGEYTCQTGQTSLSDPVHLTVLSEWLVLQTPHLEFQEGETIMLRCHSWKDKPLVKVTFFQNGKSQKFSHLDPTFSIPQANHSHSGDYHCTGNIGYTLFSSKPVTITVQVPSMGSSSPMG

T2: FcgRIIb (human, UniProt P31994 43-217)
T2 construct: extracellular domain; also called FcγRIIb; 2b; not shown: His tag at the C terminus
T2 sequence (looked up): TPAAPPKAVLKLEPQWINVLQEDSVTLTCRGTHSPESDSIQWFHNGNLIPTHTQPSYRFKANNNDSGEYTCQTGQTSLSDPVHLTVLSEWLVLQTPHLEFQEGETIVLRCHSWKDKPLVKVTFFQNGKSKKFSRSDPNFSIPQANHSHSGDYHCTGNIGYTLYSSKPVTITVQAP

T3: FcgRIIaR (human, UniProt P12318 34-217)
T3 construct: extracellular domain; also called FcγRIIa R; FcγRIIa type R; not shown: His tag at the C terminus
T3 sequence (looked up): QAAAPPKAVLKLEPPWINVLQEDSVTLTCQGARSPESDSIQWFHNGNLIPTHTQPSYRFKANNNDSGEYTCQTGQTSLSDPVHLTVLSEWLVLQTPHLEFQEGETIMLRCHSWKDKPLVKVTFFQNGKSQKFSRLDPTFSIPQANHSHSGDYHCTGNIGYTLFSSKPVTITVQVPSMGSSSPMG


How the values were obtained:
FcγRIIIa = target: T4, FcγRIIIa (human, UniProt P08637 17-208); test: SPR (Biacore), antibody captured on antigen-peptide chip, FcγR as analyte; relative binding amount
T4 construct: extracellular domain; also called FcgRIIIa; CD16A; not shown: His tag attached to the C terminus
From the text: The expression vectors for the respective H chains were combined in a way that each of the alterations L234Y, G236W, S298A, S239D, A330L, and I332E is present in the same H chain as P329R or in the different H chain from P329R, and the expression vector GpL16-k0 for the L chain was combined with them. Antibodies of interest were expressed and prepared according to the method described in Reference Example 1. The prepared antibodies were used to assay the FcγRIIIa-binding activity. The result of assessment using P329R on the direction of FcγRIIIa recognition by L234Y, G236W, S298A, S239D, A330L, and I332E is summarized in Table 12.
Analysis of interaction between objective antibody and the FcγR was carried out using Biacore T100 (GE Healthcare). HBS-EP+ (GE Healthcare) was used as the running buffer, and the measurement temperature was set to 25° C. Chips produced by immobilizing the antigen peptide by the amine coupling method to a Series S Sencor Chip CM5 (GE Healthcare), or alternatively, chips produced by allowing preliminarily biotinylated antigen peptides to interact with and immobilize onto a Series S Sensor Chip SA (certified) (GE Healthcare) were used. Antibodies of interest were captured onto an antigen peptide-immobilized chip, and allowed to interact to each FcγR diluted with running buffer. To regenerate and repeatedly use the chip, the antibodies captured on the chip were washed off by reacting 10 mM glycine-HCl, pH 1.5.

FcgRIIaH = target: T1, FcgRIIaH; test: SPR (Biacore); KD of H240-Kn033/H240-Hl033/L73-k0 divided by KD of the variant
Protocol: (§1) Next, the amino acid at position 330 was examined. The A330M alteration has been introduced into H240-Hl076 of H240-Kn125/H240-Hl076/L73-k0. […] L73-k0 was used as the common antibody L chain. Binding of the produced variants to FcgRIa, FcgRIIaR, FcgRIIaH, FcgRIIb, FcgRIIIaF, and FcgRIIIaV was measured according to the method of Reference Example 8.
(§2) Analysis of interaction between objective antibody and the FcγR was carried out using Biacore T100 (GE Healthcare), Biacore T200, Biacore A100, and Biacore 4000. HBS-EP+ (GE Healthcare) was used as the running buffer, and the measurement temperature was set to 25° C. Chips produced by immobilizing the antigen peptide by the amine coupling method to a Series S sensor Chip CM5 (GE Healthcare), chips produced by allowing preliminarily biotinylated antigen peptides to interact with and immobilize onto a Series S Sensor Chip SA (certified) (GE Healthcare), chips produced by immobilizing Protein L (ACTIGEN, BioVision) to Series S Sencor Chip CM5 (GE Healthcare), or chips produced by immobilizing Protein A/G (Thermo Scientific) to Series S Sencor Chip CM5 (GE Healthcare) were used. Antibodies of interest were captured onto these chips, and allowed to interact to each FcγR diluted with running buffer. To regenerate and repeatedly use the chip, the antibodies captured onto the chip were washed off by reacting 10 mM glycine-HCl, pH 1.5.

FcgRIIb = target: T2, FcgRIIb; test: as above
Protocol: as §1, §2

FcgRIIIaF = target: T5, FcgRIIIaF (human, UniProt P08637 17-208); test: as above
T5 construct: extracellular domain; Polymorphic site after J. Clin. Invest; also called FcγRIIIa F; 3aF; not shown: His tag at the C terminus
Protocol: as §1, §2

FcgRIIaR = target: T3, FcgRIIaR; test: as above
Protocol: as §1, §2

FcgRIIIaV = target: T6, FcgRIIIaV (human, UniProt P08637 17-208); test: as above
T6 construct: extracellular domain; Polymorphic site after J. Clin. Invest; also called FcγRIIIa V; 3aV; not shown: His tag at the C terminus
Protocol: as §1, §2

T4 sequence (P08637 17-208): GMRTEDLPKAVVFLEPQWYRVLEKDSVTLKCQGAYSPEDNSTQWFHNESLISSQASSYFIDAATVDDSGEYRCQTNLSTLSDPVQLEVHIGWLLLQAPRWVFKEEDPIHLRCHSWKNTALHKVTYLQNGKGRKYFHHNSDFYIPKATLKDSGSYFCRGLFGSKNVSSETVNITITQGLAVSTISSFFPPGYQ
T6 sequence (P08637 17-208 F176V limits assumed): as the sequence (P08637 17-208) above, with F160V counted along it
T5 sequence (P08637 17-208): as the sequence (P08637 17-208) above

Binder | FcγRIIIa BINDING ACTIVITY (relative) (FcγRIIIa) | fold 2aH (FcgRIIaH) [fold] | fold 2b (FcgRIIb) [fold] | fold 3aF (FcgRIIIaF) [fold] | fold 2aR (FcgRIIaR) [fold] | fold 3aV (FcgRIIIaV) [fold]
H240-Kn205/H240-Hl212/L73-k0 (antibody, human IgG1, kappa) heavy 1: QDQLVQSGAEVKKPGASVKVSCKASGFNIKDTYIQWVRQAPGQGLEWMGRIDPLRKQTKYREKFEGRVTITADTSTNTAYMELSSLRSEDTAVYYCVRSGREFDYWGQGTLVTVSSASTKGPSVFPLAPSSKSTSGGTAALGCLVKDYFPEPVTVSWNSGALTSGVHTFPAVLQSSGLYSLSSVVTVPSSSLGTQTYICNVNHKPSNTKVDKKVEPKSCDKTHTCPPCPAPEYLGGPSVFLFPPKPKDTLMISRTPEVTCVVVDVSHEDPEVKFNWYVDGVEVHNAKTKPREEQWNCTYRVVSVLTVLHQDWLNGKEYKCKVSNKALPAPIEKTISKAKGQPREPQVCTLPPSRDELTKNQVSLWCLVKGFYPSDIAVEWESNGQPENNYKTTPPVLDSDGSFFLYSKLTVDKSRWQQGNVFSCSVMHEALHNHYTQKSLSLSP heavy 2: QDQLVQSGAEVKKPGASVKVSCKASGFNIKDTYIQWVRQAPGQGLEWMGRIDPLRKQTKYREKFEGRVTITADTSTNTAYMELSSLRSEDTAVYYCVRSGREFDYWGQGTLVTVSSASTKGPSVFPLAPSSKSTSGGTAALGCLVKDYFPEPVTVSWNSGALTSGVHTFPAVLQSSGLYSLSSVVTVPSSSLGTQTYICNVNHKPSNTKVDKKVEPKSCDKTHTCPPCPAPELLGGPDVFLFPPKPKDTLMISRTPEVTCVVVDVSHEDPEVKFNWYVDGVEVHNAKTKPREEQYNSTYRVVSVLTVLHQDWLNGKEYKCKVSNKALPAPIEVTISKAKGQPREPQVYTLPPSRCELTKNQVSLSCAVKGFYPSDIAVEWESNGQPENNYKTTPPVLDSDGSFFLVSKLTVDKSRWQQGNVFSCSVMHEALHNHYTQKSLSLSP light: DIQMTQSPSSLSASVGDRVTITCRASQDIHKYIAWYQQKPGQAPRLLIQYTSTLQPGVPSRFSGSGSGTDYTFTISSLQPEDIATYYCLQYEQLRTFGGGTKVEIKRTVAAPSVFIFPPSDEQLKSGTASVVCLLNNFYPREAKVQWKVDNALQSGNSQESVTEQDSKDSTYSLSSTLTLSKADYEKHKVYACEVTHQGLSSPVTKSFNRGEC | – | 1.4 | 2.1 | 24.2 | 1.2 | 11.4
H240-afucosyl_G1d/L73-k0 (antibody, human IgG1, kappa, fucose removed from the N-linked sugar chain (afucosylated), also called afucosylated antibody) heavy: not shown light: DIQMTQSPSSLSASVGDRVTITCRASQDIHKYIAWYQQKPGQAPRLLIQYTSTLQPGVPSRFSGSGSGTDYTFTISSLQPEDIATYYCLQYEQLRTFGGGTKVEIKRTVAAPSVFIFPPSDEQLKSGTASVVCLLNNFYPREAKVQWKVDNALQSGNSQESVTEQDSKDSTYSLSSTLTLSKADYEKHKVYACEVTHQGLSSPVTKSFNRGEC | – | 0.7 | 1.3 | 3.7 | 1.5 | 7

Second part, the binder after the results:

FcγRIIIa BINDING ACTIVITY (relative) (FcγRIIIa) | fold 2aH (FcgRIIaH) [fold] | fold 2b (FcgRIIb) [fold] | fold 3aF (FcgRIIIaF) [fold] | fold 2aR (FcgRIIaR) [fold] | fold 3aV (FcgRIIIaV) [fold] | Binder
60 relative, GpH7-A5/GpH7-B3/GpL16-k0 = 100 | – | – | – | – | – | GpH7-A5/GpH7-HA5/GpL16-k0 (antibody, human IgG1, kappa, Anti-glypican-3 IgG1 heterodimer; L234Y and P329R in H2) heavy 1: not shown heavy 2: QVQLVQSGAEVKKPGASVTVSCKASGYTFTDYEMHWIRQPPGEGLEWIGAIDPKTGDTAYSESFQDRVTLTADKSTSTAYMELSSLTSEDTAVYYCTRFYSYTYWGQGTLVTVSSASTKGPSVFPLAPSSKSTSGGTAALGCLVKDYFPEPVTVSWNSGALTSGVHTFPAVLQSSGLYSLSSVVTVPSSSLGTQTYICNVNHKPSNTKVDKKVEPKSCDKTHTCPPCPAPEYLGGPSVFLFPPKPKDTLMISRTPEVTCVVVDVSHEDPEVKFNWYVDGVEVHNAKTKPREEQYNSTYRVVSVLTVLHQDWLNGKEYKCKVSNKALRAPIEKTISKAKGQPREPQVYTLPPSRDELTKNQVSLTCLVKGFYPSDIAVEWESNGQPENNYKTTPPVLDSDGSFFLYSKLTVDKSRWQQGNVFSCSVMHEALHNHYTQESLSLSP light: DIVMTQSPLSLPVTPGEPASISCQASESLVHSNRNTYLHWYLQKPGQSPQLLIYKVSNRFSGVPDRFSGSGSGTDFTLKISRVEAEDVGVYYCSQNTHVPPTFGQGTKVEIERTVAAPSVFIFPPSDEQLKSGTASVVCLLNNFYPREAKVQWKVDNALQSGNSQESVTEQDSKDSTYSLSSTLTLSKADYEKHKVYACEVTHQGLSSPVTKSFNRGEC
56 relative, GpH7-A5/GpH7-B3/GpL16-k0 = 100 | – | – | – | – | – | GpH7-A5/GpH7-HA6/GpL16-k0 (antibody, human IgG1, kappa, Anti-glypican-3 IgG1 heterodimer; G236W and P329R in H2) heavy 1: not shown heavy 2: QVQLVQSGAEVKKPGASVTVSCKASGYTFTDYEMHWIRQPPGEGLEWIGAIDPKTGDTAYSESFQDRVTLTADKSTSTAYMELSSLTSEDTAVYYCTRFYSYTYWGQGTLVTVSSASTKGPSVFPLAPSSKSTSGGTAALGCLVKDYFPEPVTVSWNSGALTSGVHTFPAVLQSSGLYSLSSVVTVPSSSLGTQTYICNVNHKPSNTKVDKKVEPKSCDKTHTCPPCPAPELLWGPSVFLFPPKPKDTLMISRTPEVTCVVVDVSHEDPEVKFNWYVDGVEVHNAKTKPREEQYNSTYRVVSVLTVLHQDWLNGKEYKCKVSNKALRAPIEKTISKAKGQPREPQVYTLPPSRDELTKNQVSLTCLVKGFYPSDIAVEWESNGQPENNYKTTPPVLDSDGSFFLYSKLTVDKSRWQQGNVFSCSVMHEALHNHYTQESLSLSP light: DIVMTQSPLSLPVTPGEPASISCQASESLVHSNRNTYLHWYLQKPGQSPQLLIYKVSNRFSGVPDRFSGSGSGTDFTLKISRVEAEDVGVYYCSQNTHVPPTFGQGTKVEIERTVAAPSVFIFPPSDEQLKSGTASVVCLLNNFYPREAKVQWKVDNALQSGNSQESVTEQDSKDSTYSLSSTLTLSKADYEKHKVYACEVTHQGLSSPVTKSFNRGEC
84 relative, GpH7-A5/GpH7-B3/GpL16-k0 = 100 | – | – | – | – | – | GpH7-A5/GpH7-HA11/GpL16-k0 (antibody, human IgG1, kappa, Anti-glypican-3 IgG1 heterodimer; S298A and P329R in H2) heavy 1: not shown heavy 2: QVQLVQSGAEVKKPGASVTVSCKASGYTFTDYEMHWIRQPPGEGLEWIGAIDPKTGDTAYSESFQDRVTLTADKSTSTAYMELSSLTSEDTAVYYCTRFYSYTYWGQGTLVTVSSASTKGPSVFPLAPSSKSTSGGTAALGCLVKDYFPEPVTVSWNSGALTSGVHTFPAVLQSSGLYSLSSVVTVPSSSLGTQTYICNVNHKPSNTKVDKKVEPKSCDKTHTCPPCPAPELLGGPSVFLFPPKPKDTLMISRTPEVTCVVVDVSHEDPEVKFNWYVDGVEVHNAKTKPREEQYNATYRVVSVLTVLHQDWLNGKEYKCKVSNKALRAPIEKTISKAKGQPREPQVYTLPPSRDELTKNQVSLTCLVKGFYPSDIAVEWESNGQPENNYKTTPPVLDSDGSFFLYSKLTVDKSRWQQGNVFSCSVMHEALHNHYTQESLSLSP light: DIVMTQSPLSLPVTPGEPASISCQASESLVHSNRNTYLHWYLQKPGQSPQLLIYKVSNRFSGVPDRFSGSGSGTDFTLKISRVEAEDVGVYYCSQNTHVPPTFGQGTKVEIERTVAAPSVFIFPPSDEQLKSGTASVVCLLNNFYPREAKVQWKVDNALQSGNSQESVTEQDSKDSTYSLSSTLTLSKADYEKHKVYACEVTHQGLSSPVTKSFNRGEC
